Experimental data taken from IntAct's records for PubMed 26224785.

B1: Microsomal triglyceride transfer protein large subunit (Homo sapiens), P55157 (parent)
chain: MILLAVLFLCFISSYSASVKGHTTGLSLNNDRLYKLTYSTEVLLDRGKGKLQDSVGYRISSNVDVALLWRNPDGDDDQLIQITMKDVNVENVNQQRGEKSIFKGKSPSKIMGKENLEALQRPTLLHLIHGKVKEFYSYQNEAVAIENIKRGLASLFQTQLSSGTTNEVDISGNCKVTYQAHQDKVIKIKALDSCKIARSGFTTPNQVLGVSSKATSVTTYKIEDSFVIAVLAEETHNFGLNFLQTIKGKIVSKQKLELKTTEAGPRLMSGKQAAAIIKAVDSKYTAIPIVGQVFQSHCKGCPSLSELWRSTRKYLQPDNLSKAEAVRNFLAFIQHLRTAKKEEILQILKMENKEVLPQLVDAVTSAQTSDSLEAILDFLDFKSDSSIILQERFLYACGFASHPNEELLRALISKFKGSIGSSDIRETVMIITGTLVRKLCQNEGCKLKAVVEAKKLILGGLEKAEKKEDTRMYLLALKNALLPEGIPSLLKYAEAGEGPISHLATTALQRYDLPFITDEVKKTLNRIYHQNRKVHEKTVRTAAAAIILNNNPSYMDVKNILLSIGELPQEMNKYMLAIVQDILRFEMPASKIVRRVLKEMVAHNYDRFSRSGSSSAYTGYIERSPRSASTYSLDILYSGSGILRRSNLNIFQYIGKAGLHGSQVVIEAQGLEALIAATPDEGEENLDSYAGMSAILFDVQLRPVTFFNGYSDLMSKMLSASGDPISVVKGLILLIDHSQELQLQSGLKANIEVQGGLAIDISGAMEFSLWYRESKTRVKNRVTVVITTDITVDSSFVKAGLETSTETEAGLEFISTVQFSQYPFLVCMQMDKDEAPFRQFEKKYERLSTGRGYVSQKRKESVLAGCEFPLHQENSEMCKVVFAPQPDSTSSGWF
partner: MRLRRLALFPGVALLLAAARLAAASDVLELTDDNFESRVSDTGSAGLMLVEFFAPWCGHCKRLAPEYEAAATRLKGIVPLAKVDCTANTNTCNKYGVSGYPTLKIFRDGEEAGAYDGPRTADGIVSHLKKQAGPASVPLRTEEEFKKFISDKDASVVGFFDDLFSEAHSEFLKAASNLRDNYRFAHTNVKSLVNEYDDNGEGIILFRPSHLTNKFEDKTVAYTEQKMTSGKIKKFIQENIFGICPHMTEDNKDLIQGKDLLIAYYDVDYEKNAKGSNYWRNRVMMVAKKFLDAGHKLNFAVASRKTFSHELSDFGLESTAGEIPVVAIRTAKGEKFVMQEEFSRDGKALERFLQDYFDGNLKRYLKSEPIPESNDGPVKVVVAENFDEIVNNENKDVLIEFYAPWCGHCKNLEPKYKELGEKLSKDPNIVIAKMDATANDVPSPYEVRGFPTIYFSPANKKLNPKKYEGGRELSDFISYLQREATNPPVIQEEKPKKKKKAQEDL
B2: Microsomal triglyceride transfer protein large subunit (Homo sapiens), P55157 (parent)
chain: B1 chain

Variants of: B1
Settings: with pdia3_chlae PDIA3, Q4VIT4

effect of a mutation on the interaction | Variant
decreasing interaction strength | K189L
with no effect | K189R
with no effect | D169E
disrupting interaction strength | D169V
decreasing interaction strength | K187L
with no effect | K187R

Variants of: B1
Settings: with pdia3_chlae PDIA3, Q4VIT4
Remark: another data set of the same source

effect of a mutation on the interaction | Variant
with no effect | K189L
with no effect | D169V
with no effect | K187L

Variants of: B2
Settings: with apob_human APOB

effect of a mutation on the interaction | Variant
with no effect | K187R
with no effect | K187L
with no effect | D169E
with no effect | D169V
with no effect | K189L
with no effect | K189R
